# Data published in patent US20250002610A1 (Genmab, published 2025).
# T1: human FAPα (Fibroblast activation protein alpha), cell surface expressed (human, UniProt Q12884 1-760)
# T1 construct: Endogenous on human lung fibroblasts and CAFs
# T1 sequence: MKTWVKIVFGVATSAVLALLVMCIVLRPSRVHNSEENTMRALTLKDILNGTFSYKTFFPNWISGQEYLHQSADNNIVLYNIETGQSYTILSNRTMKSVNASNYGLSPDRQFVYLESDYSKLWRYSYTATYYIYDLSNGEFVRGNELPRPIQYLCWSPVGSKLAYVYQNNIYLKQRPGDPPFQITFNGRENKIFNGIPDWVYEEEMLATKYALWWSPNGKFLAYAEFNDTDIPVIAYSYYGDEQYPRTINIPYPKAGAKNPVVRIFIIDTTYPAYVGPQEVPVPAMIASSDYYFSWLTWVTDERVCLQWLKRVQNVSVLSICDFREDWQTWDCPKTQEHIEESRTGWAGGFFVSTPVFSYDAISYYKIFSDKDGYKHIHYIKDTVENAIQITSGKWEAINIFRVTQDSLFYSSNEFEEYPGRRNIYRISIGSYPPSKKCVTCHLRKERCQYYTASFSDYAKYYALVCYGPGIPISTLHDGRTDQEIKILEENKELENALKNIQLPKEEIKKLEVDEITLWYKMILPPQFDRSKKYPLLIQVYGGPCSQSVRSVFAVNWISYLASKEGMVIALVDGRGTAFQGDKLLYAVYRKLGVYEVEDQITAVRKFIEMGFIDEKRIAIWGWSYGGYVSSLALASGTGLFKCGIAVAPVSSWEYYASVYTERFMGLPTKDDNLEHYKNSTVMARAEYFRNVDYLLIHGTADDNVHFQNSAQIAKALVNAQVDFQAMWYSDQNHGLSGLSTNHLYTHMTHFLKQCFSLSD
# Legend:
# [1] = biological target: T2, human DR4 with death domain deletion on ExpiCHO-S cells (human); test: flow cytometry, ExpiCHO-S cells expressing human DR4, n = 3
# Method: (§1) Binding of BisG1-FAPα-FERL/DR4-FERR, BisG1-DR4-FEAL/b12-FEAR and IgG1-DR4-FERR to DR4 of various species commonly used for nonclinical toxicology studies was assessed by flow cytometry using ExpiCHO-S cells transiently expressing DR4 from different animal species. In contrast to other species, rodents only express one DR which has highest homology with human DR5. Therefore, ExpiCHO-S cells transiently expressing rat and mouse DR protein were used instead. All DR constructs lack the intracellular DD to avoid apoptosis of transfected cells upon DR(4) activation. IgG1-b12 was used as negative control.
# Target sequence in this assay (chain, as listed by the source limits assumed, stated change not applied): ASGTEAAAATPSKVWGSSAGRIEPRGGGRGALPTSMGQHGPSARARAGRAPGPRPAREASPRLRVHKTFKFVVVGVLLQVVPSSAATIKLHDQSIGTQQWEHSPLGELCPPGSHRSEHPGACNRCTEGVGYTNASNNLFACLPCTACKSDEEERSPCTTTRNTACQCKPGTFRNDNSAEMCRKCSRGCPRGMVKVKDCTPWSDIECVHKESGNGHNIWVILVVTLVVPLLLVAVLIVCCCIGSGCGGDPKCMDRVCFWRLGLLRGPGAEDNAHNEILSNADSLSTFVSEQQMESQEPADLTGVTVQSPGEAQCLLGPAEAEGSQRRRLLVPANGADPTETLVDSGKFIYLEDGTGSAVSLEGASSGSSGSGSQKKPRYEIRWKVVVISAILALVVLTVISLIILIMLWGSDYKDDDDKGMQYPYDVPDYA
# [2] = biological target: T2, human DR4 with death domain deletion on …; test: flow cytometry, ExpiCHO-S cells expressing human DR4, n = 1
# Method: as §1
# [3] = biological target: T1, human FAPα (Fibroblast activation …); test: flow cytometry, CAFs, average ± SEM
# Method: Binding of bispecific or monoclonal antibodies carrying the anti-FAPα arm derived from IgG1-FAPα-FERL (BisG1-FAPα-FERL/DR4-FERR, BisG1-FAPα-FERL/b12-FERR, and IgG1-FAPα-FERL) to cell surface expressed human FAPα was analyzed by flow cytometry using human lung fibroblasts and CAFs, which endogenously express FAPα. BisG1-b12-FERL/b12-FERR was used as negative control.
# Human lung fibroblasts and CAFs (50,000 cells/well) were seeded in 96-Well round bottom plates (Greiner Bio-one, Cat #650101). Antibody dilutions were prepared using fluorescence-activated cell sorting (FACS) buffer, consisting of phosphate buffer saline (PBS, Lonza, Cat #BE17-517Q)+1% Bovine Serum Albumin (BSA, Roche, Cat #10735086001)+0.02% Sodium Azide (Bio-World, Cat #41920044-3). Plates were centrifuged, supernatant was removed, cells were resuspended in 50 μL of human Fc Block (BD, Cat #564220, diluted 1:100 in FACS buffer) and 50 μL of viability stain TO-PRO-3 Iodide (Thermo Fisher, Cat #T3605, diluted 1: 25,000 in FACS buffer), and incubated for 15 min at 4° C. Plates were washed three times with FACS buffer. […] Antibody binding to viable cells (TO-PRO-3 negative) was analyzed by flow cytometry on a FACSCelesta™ (BD biosciences) and data were processed using FlowJo_v10.8.1 (FlowJo LLC). Geomean fluorescence intensity, gMFI, was determined and visualized using GraphPad Prism.
Binder,EC50 [1] [µg/mL],EC50 [2] [µg/mL],EC50 [3] [µg/mL]
"IgG1-DR4-FERR (antibody, V domains shown, Bivalent monoclonal IgG1 lambda) VH: QVQLQESGPGLVKPSGTLSLTCAVSGGSISSYSWWSWIRQPPGKGLEWIGELYHSGSTNYNPSLKSRVTISVDKSKNQFSLKLRSVTAADTAVYYCVRGVATIDYWGQGTLVTVSS VL: QSALTQPPSASGSPGQSVTISCTGTSSDVGGYNFVSWYQQDPGKAPKLLIYEVTKRPSGVPDRFSGSKSGNTASLTVSGLQAEDEADYYCSSYAGSNNVMFGGGTKLTVLG",0.04,0.33,–
"BisG1-FAPα-FERL/DR4-FERR (bispecific antibody, human IgG1, kappa, lambda, Human IgG1 bispecific made by controlled Fab-arm exchange of IgG1-FAPα-FERL and IgG1-DR4-FERR; monovalent for FAPα and for DR4; also called GEN1057) heavy 1: EVQLLESGGGLVQPGGSPRLSCEASGFTFSSYALSWVRQAPGKGLEWVSAISGSGGGRYYADSVKGRFTISRDNSKNTLFLQMNSLRAEDTAVYYCAKEGYSSSGTYWDHWGQGTLVTVSSASTKGPSVFPLAPSSKSTSGGTAALGCLVKDYFPEPVTVSWNSGALTSGVHTFPAVLQSSGLYSLSSVVTVPSSSLGTQTYICNVNHKPSNTKVDKRVEPKSCDKTHTCPPCPAPEFERGPSVFLFPPKPKDTLMISRTPEVTCVVVDVSHEDPEVKFNWYVDGVEVHNAKTKPREEQYNSTYRVVSVLTVLHQDWLNGKEYKCKVSNKALPAPIEKTISKAKGQPREPQVYTLPPSREEMTKNQVSLTCLVKGFYPSDIAVEWESNGQPENNYKTTPPVLDSDGSFLLYSKLTVDKSRWQQGNVFSCSVMHEALHNHYTQKSLSLSPG light 1: AIQMTQSPSSVSASVGDRVTITCRASQGVSSWLAWYQQKPGRAPKLLIYVASTLQSGVPSRFSGSGSGTDFTLTINSLQPEDFATYYCQQANSFPPTFGQGTRLEMKRTVAAPSVFIFPPSDEQLKSGTASVVCLLNNFYPREAKVQWKVDNALQSGNSQESVTEQDSKDSTYSLSSTLTLSKADYEKHKVYACEVTHQGLSSPVTKSFNRGEC heavy 2: QVQLQESGPGLVKPSGTLSLTCAVSGGSISSYSWWSWIRQPPGKGLEWIGELYHSGSTNYNPSLKSRVTISVDKSKNQFSLKLRSVTAADTAVYYCVRGVATIDYWGQGTLVTVSSASTKGPSVFPLAPSSKSTSGGTAALGCLVKDYFPEPVTVSWNSGALTSGVHTFPAVLQSSGLYSLSSVVTVPSSSLGTQTYICNVNHKPSNTKVDKRVEPKSCDKTHTCPPCPAPEFERGPSVFLFPPKPKDTLMISRTPEVTCVVVDVSHEDPEVKFNWYVDGVEVHNAKTKPREEQYNSTYRVVSVLTVLHQDWLNGKEYKCKVSNKALPAPIEKTISKAKGQPREPQVYTLPPSREEMTKNQVSLTCLVKGFYPSDIAVEWESNGQPENNYKTTPPVLDSDGSFFLYSRLTVDKSRWQQGNVFSCSVMHEALHNHYTQKSLSLSPG light 2: QSALTQPPSASGSPGQSVTISCTGTSSDVGGYNFVSWYQQDPGKAPKLLIYEVTKRPSGVPDRFSGSKSGNTASLTVSGLQAEDEADYYCSSYAGSNNVMFGGGTKLTVLGQPKAAPSVTLFPPSSEELQANKATLVCLISDFYPGAVTVAWKADSSPVKAGVETTTPSKQSNNKYAASSYLSLTPEQWKSHRSYSCQVTHEGSTVEKTVAPTECS",0.11,1,0.203
"BisG1-FAPα-FERL/b12-FERR (bispecific antibody, human IgG1, kappa) heavy 1: EVQLLESGGGLVQPGGSPRLSCEASGFTFSSYALSWVRQAPGKGLEWVSAISGSGGGRYYADSVKGRFTISRDNSKNTLFLQMNSLRAEDTAVYYCAKEGYSSSGTYWDHWGQGTLVTVSSASTKGPSVFPLAPSSKSTSGGTAALGCLVKDYFPEPVTVSWNSGALTSGVHTFPAVLQSSGLYSLSSVVTVPSSSLGTQTYICNVNHKPSNTKVDKRVEPKSCDKTHTCPPCPAPEFERGPSVFLFPPKPKDTLMISRTPEVTCVVVDVSHEDPEVKFNWYVDGVEVHNAKTKPREEQYNSTYRVVSVLTVLHQDWLNGKEYKCKVSNKALPAPIEKTISKAKGQPREPQVYTLPPSREEMTKNQVSLTCLVKGFYPSDIAVEWESNGQPENNYKTTPPVLDSDGSFLLYSKLTVDKSRWQQGNVFSCSVMHEALHNHYTQKSLSLSPG light 1: AIQMTQSPSSVSASVGDRVTITCRASQGVSSWLAWYQQKPGRAPKLLIYVASTLQSGVPSRFSGSGSGTDFTLTINSLQPEDFATYYCQQANSFPPTFGQGTRLEMKRTVAAPSVFIFPPSDEQLKSGTASVVCLLNNFYPREAKVQWKVDNALQSGNSQESVTEQDSKDSTYSLSSTLTLSKADYEKHKVYACEVTHQGLSSPVTKSFNRGEC heavy 2: QVQLVQSGAEVKKPGASVKVSCQASGYRFSNFVIHWVRQAPGQRFEWMGWINPYNGNKEFSAKFQDRVTFTADTSANTAYMELRSLRSADTAVYYCARVGPYSWDDSPQDNYYMDVWGKGTTVIVSSASTKGPSVFPLAPSSKSTSGGTAALGCLVKDYFPEPVTVSWNSGALTSGVHTFPAVLQSSGLYSLSSVVTVPSSSLGTQTYICNVNHKPSNTKVDKRVEPKSCDKTHTCPPCPAPEFERGPSVFLFPPKPKDTLMISRTPEVTCVVVDVSHEDPEVKFNWYVDGVEVHNAKTKPREEQYNSTYRVVSVLTVLHQDWLNGKEYKCKVSNKALPAPIEKTISKAKGQPREPQVYTLPPSREEMTKNQVSLTCLVKGFYPSDIAVEWESNGQPENNYKTTPPVLDSDGSFFLYSRLTVDKSRWQQGNVFSCSVMHEALHNHYTQKSLSLSPG light 2: EIVLTQSPGTLSLSPGERATFSCRSSHSIRSRRVAWYQHKPGQAPRLVIHGVSNRASGISDRFSGSGSGTDFTLTITRVEPEDFALYYCQVYGASSYTFGQGTKLERKRTVAAPSVFIFPPSDEQLKSGTASVVCLLNNFYPREAKVQWKVDNALQSGNSQESVTEQDSKDSTYSLSSTLTLSKADYEKHKVYACEVTHQGLSSPVTKSFNRGEC",–,–,0.21
